Assay results taken from patent publication US20230144799A1 (published 2023).
*1 amine or outer side, *2 acyl side, *3 side chain or, on linkers, in order; H or OH if unused. Bridges are numbered along the chain shown (N, C = ends). Primed or numbered codes have the meaning given here. Where no end group is shown, it is not given here. [ ]: non-standard residue; d: D form. Sar10″ = ten sarcosine residues, CN(CC(=O)N(C)CC(=O)N(C)CC(=O)N(C)CC(=O)N(C)CC(=O)[*:2])C(=O)CN(C)C(=O)CN(C)C(=O)CN(C)C(=O)CN(C)C(=O)CN(C)[*:1]; TATA = O=C(CC[*:1])N1CN(C(=O)CC[*:2])CN(C(=O)CC[*:3])C1; Hyp = O=C(O)[C@@H]1C[C@@H](O)CN1; hArg = N=C(N)NCCCC[C@H](N)C(=O)O; βAla = NCCC(=O)O

Biological target: T1, Rat EphA2, biotinylated (in house) (Rat)
T1 construct: SPR target captured on streptavidin; also called Rat EphA2 (SPR)
T1 sequence (Q03145 other isoform, or with tags, fused parts or gaps): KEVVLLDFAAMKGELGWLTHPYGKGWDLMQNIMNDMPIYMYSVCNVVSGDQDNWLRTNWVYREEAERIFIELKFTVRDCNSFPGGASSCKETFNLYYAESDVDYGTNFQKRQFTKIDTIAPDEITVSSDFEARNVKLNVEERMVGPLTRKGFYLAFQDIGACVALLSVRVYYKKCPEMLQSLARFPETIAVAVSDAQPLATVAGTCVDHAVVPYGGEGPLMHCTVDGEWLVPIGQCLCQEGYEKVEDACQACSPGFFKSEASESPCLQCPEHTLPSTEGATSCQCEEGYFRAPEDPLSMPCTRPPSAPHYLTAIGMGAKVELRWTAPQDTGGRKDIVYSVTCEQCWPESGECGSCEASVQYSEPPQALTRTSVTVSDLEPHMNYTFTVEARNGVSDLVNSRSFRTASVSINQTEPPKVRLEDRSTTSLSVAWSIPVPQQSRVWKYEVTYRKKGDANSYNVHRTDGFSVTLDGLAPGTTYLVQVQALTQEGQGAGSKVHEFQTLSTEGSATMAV
Test: SPR (Biacore 3000), biotinylated rat EphA2 on streptavidin, 1:1 model

| Binder | Kd [nM] | t1/2 [min] |
| --- | --- | --- |
| [βAla][Sar10″]A[hArg]DC[Hyp]LVNPLCLHP[dD]W[hArg]C-NH2 (linker 6-13-20 via TATA (inferred); also: conjugated to DM1-SS(SO3H)- linker/toxin, attachment site not given here) [BCY6173] | 1.1 | 12 |
| [βAla][Sar10″]A[hArg]DC[Hyp]LVNPLCLHP[dD]W[hArg]C-NH2 (linker 6-13-20 via TATA (inferred); also: conjugated to ValCit-MMAE linker/toxin, attachment site not given here, also called BT5528) [BCY6136] | 2.96 | 12.6 |
